Data as given in article PMC9338999.

Key:
[1] = molecular target: S492R-EGFR-ECD-Fc (human) (UniProt P00533); test: ELISA
WT-EGFR-ECD-Fc (human) = WT-EGFR-ECD-Fc (human) (UniProt P00533); test: ELISA
[2] = molecular target: full-length human EGFR S492R on NIH3T3 cells (human) (UniProt P00533); test: FACS
[3] = molecular target: full-length human wild-type EGFR on NIH3T3 cells (human) (UniProt P00533); test: FACS

Kd [1]: 0.0272 nM
Kd (WT-EGFR-ECD-Fc (human)): 0.0211 nM
Kd [2]: 2.33 nM
Kd [3]: 2.36 nM
Substance: Panitumumab
